The values that follow come from patent US6291645.

This experiment addresses GST.119-224 (glutathione S-transferase fusion protein of the SH2 domain, residues 119-224, of p56^lck) (not provided). As to the kind of experiment: competition of peptide with p62 in the GST.119-224 pull-down from HeLa lysate.

Take “pY324 phosphotyrosyl peptide (derived from polyoma middle T antigen)”: the concentration that competed away p62 binding is 1 mM.
In turn, “pY505 phosphotyrosyl peptide (derived from the C-terminal negative regulatory region of p56^lck)” returned a concentration that competed away p62 binding of 15 mM.
